Data taken from patent US20190002549A1 (I MAB BIOPHARMA, published 2019).
Numbering of substitutions follows the chain as printed.

Legend:
[1] = target: T1, recombinant human GM-CSF protein (human, UniProt P04141 18-144); assay: SPR Biacore T200, antibody captured by anti-human Fc, GM-CSF as analyte, 25 C, 1:1 model
T1 construct: Bought recombinant protein (Genscript); also called biotinylated human GM-CSF protein
Method: The binding kinetics of humanized antibodies were measured by Biacore as previously described. […] The binding kinetics assay of antibody to antigen was performed using Biacore T200 system through a human antibody capture approach. The anti-human Fc IgG were immobilized on CMS sensor chip according to the manufacturer's instruction. The test antibody was injected and captured by the immobilized anti-human Fc IgG. And then serial concentrations of the antigen were individually injected, and the binding profile was recorded for each concentration of antigen analyte, respectively.
The assay system was regenerated by injection of 10 mM Glycine-HCL pH 1.5 for 30 seconds. The running buffer was HBS-EP+ (10 mM HEPES, pH 7.4, 150 mM NaCl, 3 mM EDTA and 0.05% P20). The assay temperature was 25° C., and the association and dissociation time were 180 and 600 seconds, respectively.

[2] = target: T1, recombinant human GM-CSF protein; assay: cell-based or functional assay
[3] = target: T2, recombinant rhesus GM-CSF protein (rhesus, UniProt Q9GL44 18-144); assay: ELISA, rhesus GM-CSF coated at 1 ug/ml
T2 construct: Bought recombinant protein (Genscript)
T2 sequence (Q9GL44 entry or part of it limits assumed): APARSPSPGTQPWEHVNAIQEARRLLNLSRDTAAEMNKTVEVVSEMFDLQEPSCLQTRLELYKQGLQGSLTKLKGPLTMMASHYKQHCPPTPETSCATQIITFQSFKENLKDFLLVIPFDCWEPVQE
Method: Recombinant rhesus GM-CSF protein (Genscript) was coated at 1 ug/ml in PBS onto microtiter plates for 2 h at room temperature (RT). After coating of antigen, the wells were blocked with PBS/0.05% Tween (PBST) with 1% BSA for 1 h at RT. After washing of the wells with PBST, different concentrations of humanized anti-GM-CSF antibodies were added to the well and incubated for 1 at RT. For detection of the binding antibodies, the HRP-conjugated secondary antibodies against mouse Fc (Jackson Immuno Research) were added, followed by the addition of fluorogenic substrates (Roche). Between all incubation steps, the wells of the plate were washed with PBST three times. Fluorescence was measured in a TECAN Spectrafluor plate reader.

T1 sequence (P04141 18-144 limits assumed): as the sequence (Q9GL44 entry or part of it limits assumed) above, with G9S, K38E, V43I, S53T, Q67R, Q104E counted along it

B1: Hu23F4-29 (antibody, V domains shown)
VH: EVQLVQSGAEVKKPGASVKVSCKASGYTFTSHYLHWVRQAPGQGLEWMGWIFPGDDKTKYNEKFKGRVTLTSDTSISTAYMELSRLRSDDTAVYYCARGTKYLNWNFDVWGQGTTVTVSS
VL: DIQLTQSPSFLSASVGDRVTITCKANQNVGTTLAWYQQKPGKAPKALIYSASYRYSGVPSRFSGSGSGTEFTLTISSLQPEDFATYYCHQYTTYPLTFGGGTKVEIK
notes: Humanized
Q: Which Kd [1] does the source give for B1 here?
A: 0.152 nM

Q: What about the koff [1] of the same binder?
A: 0.000101 s⁻¹

Q: And the kon [1]?
A: 667000 M⁻¹ s⁻¹

Q: And the “IC50 for TF-1 proliferation” value [2]?
A: 0.0274 µg/mL

B2: Hu23F4-5 (antibody, V domains shown)
VH: B1 VH with S17T, V20I, A24V, R38Q, Q43K, L70I, I76T, S77D, R85S, D89E
VL: B1 VL with A46L
notes: Humanized
Q: Which Kd [1] does the source give for B2 here?
A: 0.104 nM

Q: And the koff [1]?
A: 0.000124 s⁻¹

Q: And the kon [1]?
A: 1.19e+06 M⁻¹ s⁻¹

Q: And the “IC50 for TF-1 proliferation” value [2]?
A: 0.0156 µg/mL

B3: Hu23F4-6 (antibody, V domains shown)
VH: B1 VH with S17T, V20I, A24V, R38Q, Q43K, L70I, I76T, S77D, R85S, D89E
VL: B1 VL
notes: Humanized
Q: What does the source list for B3?
A: Kd [1]: 0.154 nM; koff [1]: 0.000135 s⁻¹; kon [1]: 876000 M⁻¹ s⁻¹; IC50 for TF-1 proliferation [2]: 0.00787 µg/mL

B4: Hu23F4-13 (antibody, V domains shown)
VH: EVQLVQSGAEVKKPGATVKISCKVSGYTFTSHYLHWVQQAPGKGLEWIGWIFPGDDKTKYNEKFKGRATLTSDTSTDTAYMELSSLRSEDTAVYYCARGTKYLNWNFDVWGQGTTVTVSS
VL: B1 VL with A46L
notes: Humanized
Q: Which results are given for B4?
A: Kd [1]: 0.0935 nM; koff [1]: 0.00012 s⁻¹; kon [1]: 1.28e+06 M⁻¹ s⁻¹; IC50 for TF-1 proliferation [2]: 0.00495 µg/mL; EC50 [3]: 0.00744 µg/mL

B5: Hu23F4-20 (antibody, V domains shown)
VH: B1 VH with L70M, S72R
VL: B1 VL with A46L
notes: Humanized
Q: Which results are given for B5?
A: Kd [1]: 0.142 nM; koff [1]: 0.000114 s⁻¹; kon [1]: 801000 M⁻¹ s⁻¹; IC50 for TF-1 proliferation [2]: 0.00877 µg/mL

B6: Hu23F4-23 (antibody, V domains shown)
VH: B1 VH with L70M, S72R
VL: B1 VL with A43S, S60D, E70D, Y87F
notes: Humanized
Q: With B6 as the binder, how does the Kd [1] read?
A: 0.13 nM

Q: And the koff [1]?
A: 0.000116 s⁻¹

Q: What about the kon [1] of the same binder?
A: 899000 M⁻¹ s⁻¹

Q: What about the “IC50 for TF-1 proliferation” value [2] of the same binder?
A: 0.00908 µg/mL

B7: Hu23F4-25 (antibody, V domains shown)
VH: B1 VH with L70M
VL: B1 VL
notes: Humanized
Q: B7 was tested. Which Kd [1] did it give?
A: 0.172 nM

Q: And the koff [1]?
A: 0.000109 s⁻¹

Q: And the kon [1]?
A: 635000 M⁻¹ s⁻¹

Q: What about the “IC50 for TF-1 proliferation” value [2] of the same binder?
A: 0.0122 µg/mL

B8: Hu23F4-27 (antibody, V domains shown)
VH: B1 VH with L70M
VL: B1 VL with A43S, S60D, E70D, Y87F
notes: Humanized
Q: Which Kd [1] does the source give for B8 here?
A: 0.102 nM

Q: And the koff [1]?
A: 9.46e-05 s⁻¹

Q: And the kon [1]?
A: 923000 M⁻¹ s⁻¹

Q: What about the “IC50 for TF-1 proliferation” value [2] of the same binder?
A: 0.00395 µg/mL

Q: What about the EC50 [3] of the same binder?
A: 0.00625 µg/mL

B9: Hu23F4-36 (antibody, V domains shown)
VH: B1 VH with G26D, F29L, M48I, V68A
VL: B1 VL with A46L
notes: Humanized
Q: Which results are given for B9?
A: Kd [1]: 0.0807 nM; koff [1]: 0.000103 s⁻¹; kon [1]: 1.27e+06 M⁻¹ s⁻¹; IC50 for TF-1 proliferation [2]: 0.0033 µg/mL; EC50 [3]: 0.00775 µg/mL

B10: 50C5 chimera (antibody, V domains shown)
VH: QVQLQQSAAELVRPGASVKMSCKASGYIFTPYSIHWIKQRPGQGLEWIGYINPSTGYIEYNQHFKDRTTLTADKSSSTAYMQLRSLTSEDSAVYYCARGGDYEGYFDYWGQGTTLTVSS
VL: DIQMTQSPDSLSASVGETVTITCRLNENIYSFLAWYQQRQGKSPQLLVYNAETLAEDVPSRFSGSGSGTQFSLKISSLQTDDFGTYYCQQHYGTPYTFGGGTNLEIE
notes: Human constant regions (captured by anti-human Fc IgG); also called 35230Hu50C5-chimera; Hu50C5-chimera
Q: What does the source list for B10?
A: Kd [1]: 0.032 nM; koff [1]: 0.000142 s⁻¹; kon [1]: 4.43e+06 M⁻¹ s⁻¹; IC50 for TF-1 proliferation [2]: 0.0865 µg/mL

B11: Hu50C5-6 (antibody, V domains shown)
VH: EVQLVQSGAEVKKPGSSVKVSCKASGYIFSPYSIHWVRQAPGQGLEWMGYINPSTGYIEYNQHFKDRVTITADKSTSTAYMELRSLRSEDTAVYYCARGGDYEGYFDYWGQGTTVTVSS
VL: DIQMTQSPSSLSASVGDRVTITCRLNENIYSFLAWYQQKPGKAPKLLIYNAETLAEGVPSRFSGSGSGTDFTLTISSLQPEDFATYYCQQHYGTPYTFGGGTKVEIK
notes: Humanized; also called 35230Hu50C5-6
Q: How did the Kd [1] turn out when B11 was run?
A: 0.0311 nM

Q: What about the koff [1] of the same binder?
A: 0.000138 s⁻¹

Q: And the kon [1]?
A: 4.42e+06 M⁻¹ s⁻¹

Q: What about the “IC50 for TF-1 proliferation” value [2] of the same binder?
A: 0.0239 µg/mL

B12: Hu50C5-8 (antibody, V domains shown)
VH: B11 VH
VL: B11 VL with I48V, G57D
notes: Humanized; also called 35230Hu50C5-8
Q: For B12, which Kd [1] is on record?
A: 0.0282 nM

Q: What about the koff [1] of the same binder?
A: 0.000139 s⁻¹

Q: And the kon [1]?
A: 4.91e+06 M⁻¹ s⁻¹

Q: What about the “IC50 for TF-1 proliferation” value [2] of the same binder?
A: 0.0459 µg/mL

B13: Hu50C5-11 (antibody, V domains shown)
VH: B11 VH with M48I
VL: B11 VL
notes: Humanized; also called 35230Hu50C5-11
Q: How did the Kd [1] turn out when B13 was run?
A: 0.0312 nM

Q: And the koff [1]?
A: 0.000136 s⁻¹

Q: What about the kon [1] of the same binder?
A: 4.37e+06 M⁻¹ s⁻¹

Q: And the “IC50 for TF-1 proliferation” value [2]?
A: 0.111 µg/mL

B14: Hu50C5-17 (antibody, V domains shown)
VH: B11 VH with M48I, V68T, I70L
VL: B11 VL with I48V
notes: Humanized; also called 35230Hu50C5-17
Q: B14 was tested. Which Kd [1] did it give?
A: 0.0249 nM

Q: And the koff [1]?
A: 0.000111 s⁻¹

Q: And the kon [1]?
A: 4.47e+06 M⁻¹ s⁻¹

Q: What about the “IC50 for TF-1 proliferation” value [2] of the same binder?
A: 0.0221 µg/mL

Q: And the EC50 [3]?
A: 0.0189 µg/mL

B15: Hu50C5-18 (antibody, V domains shown)
VH: B11 VH with M48I, V68T, I70L
VL: B11 VL with I48V, G57D
notes: Humanized
Q: How did the Kd [1] turn out when B15 was run?
A: 0.0231 nM

Q: What about the koff [1] of the same binder?
A: 0.000109 s⁻¹

Q: What about the kon [1] of the same binder?
A: 4.72e+06 M⁻¹ s⁻¹

Q: What about the “IC50 for TF-1 proliferation” value [2] of the same binder?
A: 0.0413 µg/mL

B16: Hu50C5-19 (antibody, V domains shown)
VH: B11 VH with M48I, V68T, I70L
VL: B11 VL with I48V, G57D, D70Q
notes: Humanized; also called 35230Hu50C5-19
Q: Which Kd [1] does the source give for B16 here?
A: 0.023 nM

Q: What about the koff [1] of the same binder?
A: 0.000106 s⁻¹

Q: And the kon [1]?
A: 4.62e+06 M⁻¹ s⁻¹

Q: What about the “IC50 for TF-1 proliferation” value [2] of the same binder?
A: 0.017 µg/mL

B17: Hu50C5-21 (antibody, V domains shown)
VH: B11 VH with S30T, M48I, V68T, I70L
VL: B11 VL
notes: Humanized; also called 35230Hu50C5-21
Q: Which Kd [1] does the source give for B17 here?
A: 0.0236 nM

Q: And the koff [1]?
A: 0.000108 s⁻¹

Q: And the kon [1]?
A: 4.59e+06 M⁻¹ s⁻¹

Q: What about the “IC50 for TF-1 proliferation” value [2] of the same binder?
A: 0.0216 µg/mL

B18: Hu50C5-23 (antibody, V domains shown)
VH: B11 VH with S30T, M48I, V68T, I70L
VL: B11 VL with I48V, G57D
notes: Humanized; also called 35230Hu50C5-23
Q: For B18, which Kd [1] is on record?
A: 0.0276 nM

Q: And the koff [1]?
A: 0.000125 s⁻¹

Q: What about the kon [1] of the same binder?
A: 4.54e+06 M⁻¹ s⁻¹

Q: And the “IC50 for TF-1 proliferation” value [2]?
A: 0.0143 µg/mL

Q: What about the EC50 [3] of the same binder?
A: 0.0216 µg/mL

B19: 23F4 chimera (antibody, V domains shown)
VH: QVQLQQSGPELVKPGTSMKISCKTSDYTLTSHYLHWVKQRPGQGLEWIGWIFPGDDKTKYNEKFKGKATLTSDKTSNTAYMQLSSLTSEESAVYFCARGTKYLNWNFDVWGTGTTVTVSS
VL: DIVLTQPQKFLSTSVGDRVSVTCKANQNVGTTLAWYQQKPGQSPKALIYSASYRYSGVPDRFTGSGSGTDFTLTISNVQSEDLAEYFCHQYTTYPLTFGGGTKLEIK
notes: Human constant regions (captured by anti-human Fc IgG); also called Hu23F4-chimera
Q: Which results are given for B19?
A: Kd [1]: 0.0315 nM; koff [1]: 3.87e-05 s⁻¹; kon [1]: 1.23e+06 M⁻¹ s⁻¹; IC50 for TF-1 proliferation [2]: 0.00855 µg/mL
